Source: US20110091994A1, “Methods for Screening Compounds for Treating and/or Preventing an Hepatitis C Virus Infection” (priority 2008, published 2011)
Like-named read-outs stand apart in the source and are kept apart here.

Key:
[1] = test system: HCV ORFs (Gal4-DB fusions); type: binding, HCV genotype 1b, isolate con1; settings: human protein listed by gene symbol; the value names the HCV protein it interacts with
[2] = molecular target: T1, HCV ORFs (Gal4-DB fusions) (Hepatitis C virus genotype 1b, UniProt Q9WMX2); type: binding, HCV genotype 1b, isolate con1; settings: human protein as prey
T1 construct: expressed in transfected cells; host or cells: Saccharomyces cerevisiae MAV203 (IMAP1) / AH109 (IMAP2)

[3] = molecular target: T2, HCV proteins (Hepatitis C virus genotype 1b, UniProt Q9WMX2); test: Validation by Y2H pairwise matrices; type: binding;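 also: yeast two-hybrid pairwise tests of interactions first found in Y2H screens of HCV bait proteins against human cDNA libraries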
T2 construct: expressed in transfected cells

[4] = validation of interaction with HCV protein CORE
[5] = validation of interaction with HCV protein NS3
[6] = interaction with HCV protein NS5B
[7] = validation of interaction with HCV protein E2
[8] = validation of interaction with HCV protein NS2
[9] = validation of interaction with HCV protein NS4A
[10] = validation of interaction with HCV protein E1
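For IMAP Y2H IMAP1 (number of IST) in this document: yeast two-hybrid screens using HCV genotype 1b proteins fused to Gal4-DB as baits against prey cDNA libraries from human spleen and foetal brain, IMAP1 via transformation and IMAP2 via mating.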
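For IMAP Y2H IMAP2 (number of IST) in this document: yeast two-hybrid screens using HCV genotype 1b proteins fused to Gal4-DB as baits against prey cDNA libraries from human spleen and foetal brain, IMAP1 via transformation and IMAP2 via mating.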
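For Interaction with viral protein in this document: yeast two-hybrid screens using HCV genotype 1b proteins fused to Gal4-DB as baits against prey cDNA libraries from human spleen and foetal brain, IMAP1 via transformation and IMAP2 via mating.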

| Substance | Interaction with viral protein [1] | IMAP Y2H IMAP1 (number of IST) ([2]; HCV protein NS3 as bait) | Y2H matrices [3, 5] | also measured |
| --- | --- | --- | --- | --- |
| AGRN | CORE |  |  | IMAP Y2H IMAP1 (number of IST) ([2]; HCV protein CORE as bait): 1; Y2H matrices [3, 4]: + |
| ANKRD12 | NS3 | 1 | + |  |
| APOA1 | NS3/4A and NS4B and NS2 and NS3 |  |  |  |
| ARNT | NS3 | 1 | + |  |
| ASXL1 | NS5A and NS3 | 1 | + |  |
| AXIN1 | NS5A |  |  | IMAP Y2H IMAP2 (number of IST) ([2]; HCV protein NS5A as bait): 1 |
| BZRAP1 | NS3 | 1 | + |  |
| CADPS | NS5A |  |  | IMAP Y2H IMAP2 (number of IST) ([2]; HCV protein NS5A as bait): 1 |
| CADPS2 | NS5A |  |  | IMAP Y2H IMAP2 (number of IST) ([2]; HCV protein NS5A as bait): 1 |
| CELSR2 | NS3 | 1 | + |  |
| CEP63 | NS5A |  |  | IMAP Y2H IMAP2 (number of IST) ([2]; HCV protein NS5A as bait): 1 |
| CEP152 | NS3 | 1 | + |  |
| CEP192 | NS3 | 1 | + |  |
| CEP250 | NS5A |  |  | IMAP Y2H IMAP2 (number of IST) ([2]; HCV protein NS5A as bait): 15; IMAP Y2H IMAP2 (number of IST) ([2]; HCV protein NS5B as bait): 1 |
| CFP | NS3 | 4 | + |  |
| COL4A2 | CORE |  |  | IMAP Y2H IMAP1 (number of IST) ([2]; HCV protein CORE as bait): 1; Y2H matrices [3, 4]: + |
| CSNK2B | NS3 | 3 | + |  |
| DOCK7 | NS3 |  |  | IMAP Y2H IMAP2 (number of IST) ([2]; HCV protein NS3 as bait): 2 |
| FBN3 | NS3 | 2 | + |  |
| FHL2 | NS5A |  |  | IMAP Y2H IMAP2 (number of IST) ([2]; HCV protein NS5A as bait): 1 |
| FLAD1 | NS3 | 1 | + |  |
| GAA | NS3 | 2 | + |  |
| GAPDH | CORE |  |  | IMAP Y2H IMAP1 (number of IST) ([2]; HCV protein CORE as bait): 1; Y2H matrices [3, 4]: + |
| GFAP | NS3 | 43 | + |  |
| GON4L | NS3 | 1 | + |  |
| HIVEP2 | NS3 and CORE | 3 | + | IMAP Y2H IMAP2 (number of IST) ([2]; HCV protein CORE as bait): 2; IMAP Y2H IMAP2 (number of IST) ([2]; HCV protein NS3 as bait): 5 |
| HNRPK |  |  |  | IMAP Y2H IMAP2 (number of IST) ([2]; HCV protein CORE as bait): 14; IMAP Y2H IMAP2 (number of IST) ([2]; HCV protein NS3 as bait): 1 |

| Substance | Interaction with viral protein [1] | IMAP Y2H IMAP1 (number of IST) ([2]; HCV protein NS3 as bait) | Y2H matrices [3, 5] | also measured |
| --- | --- | --- | --- | --- |
| HOXD8 |  |  |  | IMAP Y2H IMAP1 (number of IST) ([2]; HCV protein CORE as bait): 1; IMAP Y2H IMAP1 (number of IST) ([2]; HCV protein E2 as bait): 1; IMAP Y2H IMAP1 (number of IST) ([2]; HCV protein NS2 as bait): 1; IMAP Y2H IMAP1 (number of IST) ([2]; HCV protein NS4A as bait): 1; IMAP Y2H IMAP1 (number of IST) ([2]; HCV protein NS5B as bait): 1; Y2H matrices [3, 6]: +; Y2H matrices [3, 4]: +; Y2H matrices [3, 7]: +; Y2H matrices [3, 8]: +; Y2H matrices [3, 9]: + |
| ITGB1 |  |  |  | IMAP Y2H IMAP1 (number of IST) ([2]; HCV protein E2 as bait): 1; Y2H matrices [3, 7]: + |
| ITGB4 | NS3 | 7 | + |  |
| JAG2 | NS3 | 1 | + |  |
| JUN |  | 8 | + | IMAP Y2H IMAP1 (number of IST) ([2]; HCV protein E1 as bait): 1; Y2H matrices [3, 10]: + |
| KHDRBS1 | NS3 | 4 | + |  |
| KIAA1549 | NS3 | 1 | + |  |
| LAMA5 | NS3 | 1 | + |  |
| LAMB2 | NS3 | 1 | + |  |
| LAMC3 | NS3 | 1 | + |  |
| LRRC7 | NS3 |  |  | IMAP Y2H IMAP2 (number of IST) ([2]; HCV protein NS3 as bait): 6 |
| LTBP4 | NS3 and CORE | 2 | + | IMAP Y2H IMAP1 (number of IST) ([2]; HCV protein CORE as bait): 4; Y2H matrices [3, 4]: + |
| MAPK7 | NS3 | 4 | + |  |
| MEGF6 | CORE |  |  | IMAP Y2H IMAP1 (number of IST) ([2]; HCV protein CORE as bait): 1; Y2H matrices [3, 4]: + |
| MEGF8 | NS3 | 2 | + |  |
| MLLT4 | NS3 | 2 | + |  |
| MVP | NS3 | 1 | + |  |
| NCAN | NS3 | 1 | + |  |
| NDC80 | NS3 |  |  | IMAP Y2H IMAP2 (number of IST) ([2]; HCV protein NS3 as bait): 1 |
| NELL2 | NS3 | 11 | + |  |
| NOTCH1 | NS3 | 2 | + |  |
| NR4A1 |  |  |  | IMAP Y2H IMAP1 (number of IST) ([2]; HCV protein CORE as bait): 31; IMAP Y2H IMAP1 (number of IST) ([2]; HCV protein E1 as bait): 14; IMAP Y2H IMAP1 (number of IST) ([2]; HCV protein E2 as bait): 6; IMAP Y2H IMAP1 (number of IST) ([2]; HCV protein NS2 as bait): 5; IMAP Y2H IMAP1 (number of IST) ([2]; HCV protein NS4A as bait): 3; IMAP Y2H IMAP1 (number of IST) ([2]; HCV protein NS5B as bait): 8; Y2H matrices [3, 6]: +; Y2H matrices [3, 4]: +; Y2H matrices [3, 10]: +; Y2H matrices [3, 7]: +; Y2H matrices [3, 8]: +; Y2H matrices [3, 9]: + |
| OBSCN | NS3 | 1 |  |  |
| PARP4 | NS3 | 8 | + |  |
| PDE4DIP | NS3 | 3 | + |  |
| PSMA6 |  |  |  | IMAP Y2H IMAP1 (number of IST) ([2]; HCV protein E2 as bait): 1; Y2H matrices [3, 7]: + |
| PSME3 | NS3 | 10 | + |  |

| Substance | Interaction with viral protein [1] | IMAP Y2H IMAP1 (number of IST) ([2]; HCV protein NS3 as bait) | Y2H matrices [3, 5] | also measured |
| --- | --- | --- | --- | --- |
| RGNEF | NS3 | 1 | + |  |
| RICS | NS3 | 3 | + | IMAP Y2H IMAP2 (number of IST) ([2]; HCV protein NS3 as bait): 1 |
| RINT1 | NS3 | 1 | + |  |
| RNF31 | NS3 and CORE | 1 | + | IMAP Y2H IMAP1 (number of IST) ([2]; HCV protein CORE as bait): 1; Y2H matrices [3, 4]: + |
| ROGDI | NS3 |  |  | IMAP Y2H IMAP2 (number of IST) ([2]; HCV protein NS3 as bait): 1 |
| RUSC2 | NS3 | 21 | + | IMAP Y2H IMAP2 (number of IST) ([2]; HCV protein NS3 as bait): 1 |
| SBF1 | NS3 | 1 | + |  |
| SETD2 |  |  |  | IMAP Y2H IMAP1 (number of IST) ([2]; HCV protein CORE as bait): 5; IMAP Y2H IMAP1 (number of IST) ([2]; HCV protein E1 as bait): 2; IMAP Y2H IMAP1 (number of IST) ([2]; HCV protein E2 as bait): 1; IMAP Y2H IMAP1 (number of IST) ([2]; HCV protein NS2 as bait): 1; IMAP Y2H IMAP1 (number of IST) ([2]; HCV protein NS5B as bait): 3; Y2H matrices [3, 6]: +; Y2H matrices [3, 4]: +; Y2H matrices [3, 10]: +; Y2H matrices [3, 7]: +; Y2H matrices [3, 8]: + |
| SHARPIN | NS5A |  |  | IMAP Y2H IMAP2 (number of IST) ([2]; HCV protein NS5A as bait): 2; IMAP Y2H IMAP2 (number of IST) ([2]; HCV protein NS5B as bait): 1 |
| SLIT1 | NS3 | 7 | + |  |
| SMYD3 | NS5A |  |  | IMAP Y2H IMAP1 (number of IST) ([2]; HCV protein NS5A as bait): 1; Y2H matrices ([3]; interaction with HCV protein NS5A): + |
| STAB1 | NS3 | 4 | + |  |
| STAT3 | NS3 | 1 | + |  |
| SVEP1 | NS3 | 3 | + |  |
| SYNE1 | NS3 |  |  | IMAP Y2H IMAP2 (number of IST) ([2]; HCV protein NS3 as bait): 4 |
| TAF1 | NS3 | 2 | + |  |
| TGFB1I1 | NS3 | 1 | + |  |
| THBS1 | NS5A |  |  | IMAP Y2H IMAP2 (number of IST) ([2]; HCV protein NS5A as bait): 7 |
| TMSB4X |  |  |  | IMAP Y2H IMAP1 (number of IST) ([2]; HCV protein E1 as bait): 1; Y2H matrices [3, 10]: + |
| TRIM27 | NS3 and NS2 | 1 | + | IMAP Y2H IMAP2 (number of IST) ([2]; HCV protein NS2 as bait): 1 |
| TRIO | NS3 | 1 | + | IMAP Y2H IMAP2 (number of IST) ([2]; HCV protein NS3 as bait): 1 |
| TRIOBP |  |  |  | IMAP Y2H IMAP2 (number of IST) ([2]; HCV protein NS5A as bait): 2 |
| TRIP11 | NS3 | 1 | + |  |
| TUBB2C |  |  |  | IMAP Y2H IMAP1 (number of IST) ([2]; HCV protein NS5B as bait): 1; Y2H matrices [3, 6]: + |
| UBQLN4 |  |  |  | IMAP Y2H IMAP1 (number of IST) ([2]; HCV protein p7 as bait): 3; Y2H matrices ([3]; interaction with HCV protein p7): + |
